Measured values as given in paper PMC10925063, “FUS unveiled in mitochondrial DNA repair and targeted ligase-1 expression rescues repair-defects in FUS-linked motor neuron disease” (Nature Communications, 2024).
Residue numbers refer to the chain shown, from its start. Names may count otherwise.

T1: Tom20 (human (endogenous in fibroblasts and …, UniProt Q15388 1-145))
T1 construct: Tom20, mitochondria-specific marker, human, endogenous; source: endogenous, in fibroblasts and iPSC-derived motor neurons
T1 sequence (looked up): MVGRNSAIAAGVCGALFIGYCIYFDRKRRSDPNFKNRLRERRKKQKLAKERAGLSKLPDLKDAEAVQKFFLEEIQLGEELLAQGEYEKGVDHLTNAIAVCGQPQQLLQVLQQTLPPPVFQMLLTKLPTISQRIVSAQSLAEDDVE

B1: Fused in Sarcoma (FUS), endogenous wild type (natural protein, UniProt P35637 1-526, looked up)
chain: MASNDYTQQATQSYGAYPTQPGQGYSQQSSQPYGQQSYSGYSQSTDTSGYGQSSYSSYGQSQNTGYGTQSTPQGYGSTGGYGSSQSSQSSYGQQSSYPGYGQQPAPSSTSGSYGSSSQSSSYGQPQSGSYSQQPSYGGQQQSYGQQQSYNPPQGYGQQNQYNSSSGGGGGGGGGGNYGQDQSSMSSGGGSGGGYGNQDQSGGGGSGGYGQQDRGGRGRGGSGGGGGGGGGGYNRSSGGYEPRGRGGGRGGRGGMGGSDRGGFNKFGGPRDQGSRHDSEQDNSDNNTIFVQGLGENVTIESVADYFKQIGIIKTNKKTGQPMINLYTDRETGKLKGEATVSFDDPPSAKAAIDWFDGKEFSGNPIKVSFATRRADFNRGGGNGRGGRGRGGPMGRGGYGGGGSGGGGRGGFPSGGGGGGGQQRAGDWKCPNPTCENMNFSWRNECNQCKAPKPDGPGGGPGGSHMGGNYGDDRRGGRGGYDRGGYRGRGGDRGGFRGGRGGGDRGGFGPGKMDSRGEHRQDRRERPY
notes: Fused in Sarcoma (FUS), human, endogenous wild type; also called FUS WT; WT FUS; source: endogenous, in HEK293 cells, control fibroblasts, iPSC-derived motor neurons and NPSCs
B2: FUS P525L, endogenous mutant of ALS patient-derived cells (natural protein, UniProt P35637 1-526, looked up)
chain: B1 chain with P525L
notes: Fused in Sarcoma (FUS), human, with the ALS patient mutation P525L; source: endogenous, in ALS patient-derived fibroblasts, iPSC-derived motor neurons and NPSCs
B3: FUS R521H, endogenous mutant of ALS patient-derived cells (natural protein, UniProt P35637 1-526, looked up)
chain: B1 chain with R521H
notes: Fused in Sarcoma (FUS), human, with the ALS patient mutation R521H; source: endogenous, in ALS patient-derived fibroblasts and iPSC-derived motor neurons
B4: mtDNA Ligase IIIα (mtLig3) (enzyme, UniProt P49916 43-1009, looked up)
chain: LLHGHPLFLRRKPVLSFQGSHLRSRATYLVFLPGLHVGLCSGPCEMAEQRFCVDYAKRGTAGCKKCKEKIVKGVCRIGKVVPNPFSESGGDMKEWYHIKCMFEKLERARATTKKIEDLTELEGWEELEDNEKEQITQHIADLSSKAAGTPKKKAVVQAKLTTTGQVTSPVKGASFVTSTNPRKFSGFSAKPNNSGEAPSSPTPKRSLSSSKCDPRHKDCLLREFRKLCAMVADNPSYNTKTQIIQDFLRKGSAGDGFHGDVYLTVKLLLPGVIKTVYNLNDKQIVKLFSRIFNCNPDDMARDLEQGDVSETIRVFFEQSKSFPPAAKSLLTIQEVDEFLLRLSKLTKEDEQQQALQDIASRCTANDLKCIIRLIKHDLKMNSGAKHVLDALDPNAYEAFKASRNLQDVVERVLHNAQEVEKEPGQRRALSVQASLMTPVQPMLAEACKSVEYAMKKCPNGMFSEIKYDGERVQVHKNGDHFSYFSRSLKPVLPHKVAHFKDYIPQAFPGGHSMILDSEVLLIDNKTGKPLPFGTLGVHKKAAFQDANVCLFVFDCIYFNDVSLMDRPLCERRKFLHDNMVEIPNRIMFSEMKRVTKALDLADMITRVIQEGLEGLVLKDVKGTYEPGKRHWLKVKKDYLNEGAMADTADLVVLGAFYGQGSKGGMMSIFLMGCYDPGSQKWCTVTKCAGGHDDATLARLQNELDMVKISKDPSKIPSWLKVNKIYYPDFIVPDPKKAAVWEITGAEFSKSEAHTADGISIRFPRCTRIRDDKDWKSATNLPQLKELYQLSKEKADFTVVAGDEGSSTTGGSSEENKGPSGSAVSRKAPSKPSASTKKAEGKLSNSNSKDGNMQTAKPSAMKVGEKLATKSSPVKVGEKRKAADETLCQTKVLLDIFTGVRLYLPPSTPDFSRLRRYFVAFDGDLVQEFDMTSATHVLGSRDKNPAAQQVSPEWIWACIRKRRLVAPC
notes: DNA ligase IIIα, human, endogenous; also called LigIII; mitochondrial version of Lig3; source: endogenous, in HEK293 cells, fibroblasts, iPSC-derived motor neurons and NPSCs

What was measured:
Details in all cases: partners not purified
HSP60 = molecular target: T2, HSP60 (human (endogenous in fibroblasts and …, UniProt P10809 27-573)); experiment: proximity ligation; Duolink in situ PLA on fixed, permeabilised cells with anti-FUS and anti-Tom20 or anti-HSP60; patient derived fibroblasts and motor neurons (Fig. 1c, d; the panel's cell type is not told); untreated or glucose oxidase (GO)
T2 construct: HSP60, mitochondria-specific marker, human, endogenous; source: endogenous, in fibroblasts and motor neurons
T2 sequence (P10809 27-573): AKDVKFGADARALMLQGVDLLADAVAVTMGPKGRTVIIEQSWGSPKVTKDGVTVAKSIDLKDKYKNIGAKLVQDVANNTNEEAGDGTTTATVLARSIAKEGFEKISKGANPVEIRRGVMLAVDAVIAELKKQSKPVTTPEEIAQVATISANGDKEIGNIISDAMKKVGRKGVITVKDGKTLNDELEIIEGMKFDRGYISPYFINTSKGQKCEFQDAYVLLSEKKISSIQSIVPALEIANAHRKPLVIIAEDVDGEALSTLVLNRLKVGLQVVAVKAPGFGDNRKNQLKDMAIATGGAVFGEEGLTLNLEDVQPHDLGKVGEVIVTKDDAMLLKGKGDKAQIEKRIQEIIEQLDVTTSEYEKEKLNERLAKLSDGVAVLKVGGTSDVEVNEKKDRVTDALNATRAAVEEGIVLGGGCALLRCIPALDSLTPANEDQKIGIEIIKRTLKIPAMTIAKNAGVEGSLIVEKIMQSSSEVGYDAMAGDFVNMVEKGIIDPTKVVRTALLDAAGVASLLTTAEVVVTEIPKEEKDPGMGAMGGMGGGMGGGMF

Tom20 [1] = molecular target: T1, Tom20; experiment: as above
Tom20 [2] = molecular target: T1, Tom20; experiment: proximity ligation; Duolink in situ PLA on fixed, permeabilised control and patient iPSC-derived motor neurons (Fig. 1e, 4e); with or without GO; MitoTracker green counterstain; foci counted in 25 cells
[3] = molecular target: B3; experiment: as above
[4] = molecular target: B2; experiment: as above
[5] = molecular target: B1; experiment: as above

Row | Binder | PLA foci, median (GO) (HSP60) [PLA foci] | PLA foci, median (untreated) (HSP60) [PLA foci] | PLA foci, median (untreated) (Tom20 [1]) [PLA foci] | PLA foci, median (GO) (Tom20 [2]) [PLA foci] | PLA foci, median (untreated) (Tom20 [2]) [PLA foci] | PLA foci, median (GO) [3] [PLA foci] | PLA foci, median (GO) [4] [PLA foci] | PLA foci, median (GO) [5] [PLA foci]
1 | B1 | 36 | 12 | 24 | 4 | 1 | – | – | –
2 | B2 | 64 | 51 | 218 | 13 | 4 | – | – | –
3 | B3 | 56 | 27 | 89 | 9 | 4 | – | – | –
4 | B4 | – | – | – | – | – | 4 | 2 | 8
